Source: patent US20140112915A1 (Novartis, published 2014)
Read-outs that look alike come from different tables or passages of the source.

T1: Recombinant cynomolgus IL-18 (cynomolgus monkey, UniProt Q14116 37-193 (human entry))
T1 chain: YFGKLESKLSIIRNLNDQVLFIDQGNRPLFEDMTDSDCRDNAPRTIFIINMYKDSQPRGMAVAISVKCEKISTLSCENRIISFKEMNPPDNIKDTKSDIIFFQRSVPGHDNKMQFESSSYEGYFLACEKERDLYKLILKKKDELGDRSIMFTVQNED

T2: Recombinant human IL-18 (human, UniProt Q14116 37-193)
T2 sequence: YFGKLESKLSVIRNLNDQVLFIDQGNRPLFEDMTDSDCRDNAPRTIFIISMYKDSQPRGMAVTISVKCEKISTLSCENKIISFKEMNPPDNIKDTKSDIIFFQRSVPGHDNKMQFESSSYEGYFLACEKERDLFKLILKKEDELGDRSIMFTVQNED

T3: Native human IL-18 (human, UniProt Q14116 37-193)
T3 sequence: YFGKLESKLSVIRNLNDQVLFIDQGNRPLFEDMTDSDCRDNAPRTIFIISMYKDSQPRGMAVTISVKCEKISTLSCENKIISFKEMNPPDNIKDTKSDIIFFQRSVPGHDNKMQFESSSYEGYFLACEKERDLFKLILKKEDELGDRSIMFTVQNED

B1: Recombinant human IL-18 Binding Protein-IgG1 Fc (Fc fusion, UniProt O95998 31-194, looked up, not shown: a dimerising Fc or GST)
chain: TPVSQTTTAATASVRSTKDPCPSQPPVFPAAKQCPALEVTWPEVEVPLNGTLSLSCVACSRFPNFSILYWLGNGSFIEHLPGRLWEGSTSRERGSTGTQLCKALVLEQLTPALHSTNFSCVLVDPEQVVQRHVVLAQLWAGLRATLPPTQEALPSSHSSPQQQG
B2: MOR13342 (antibody, human IgG1, kappa, L234A L235A, V domains shown)
VH: QVQLVQSGAEVKKPGSSVKVSCKASGGTFSTFSISWVRQAPGQGLEWMGGIIPIFGTANYAQKFQGRVTITADESTSTAYMELSSLRSEDTAVYYCARGGYGGYYYFDYWGQGTLVTVSS
VL: DIQMTQSPSSLSASVGDRVTITCRASQSISNRLNWYQQKPGKAPKLLIYKGSTLQSGVPSRFSGSGSGTDFTLTISSLQPEDFATYYCQQHYVWSTTFGQGTKVEIKR
B3: MOR13347 (antibody, human IgG1, kappa, L234A L235A, V domains shown)
VH: QVQLVQSGAEVKKPGSSVKVSCKASGGTFSTFSISWVRQAPGQGLEWMGGIIPIFGTANYAQKFQGRVTITADESTSTAYMELSSLRSEDTAVYYCARGGYGGYYYFDYWGQGTLVTVSS
VL: DIQMTQSPSSLSASVGDRVTITCRASQSISNRLNWYQQKPGKAPKLLIYKGSTLQSGVPSRFSGSGSGTDFTLTISSLQPEDFATYYCQQHYQWLTTFGQGTKVEIKR
B4: MOR10579 (antibody, human IgG1, lambda, L234A L235A, V domains shown)
VH: EVQLVQSGAEVKKPGSSVKVSCKASGGTFNSYAISWVRQAPGQGLEWMGWINPFYIGETFYAQKFQGRVTITADESTSTAYMELSSLRSEDTAVYYCARAAYHPLVFDNWGQGTLVTVSS
VL: QSVLTQPPSASGTPGQRVTISCSGSSSNIGNHYVNWYQQLPGTAPKLLIYRNNHRPSGVPDRFSGSKSGTSASLAISGLQSEDEADYYCQSWDYSGFSTVFGGGTKLTVLG
B5: MOR10222_E1Q_N30S_M54N (antibody, human IgG1, lambda, L234A L235A, V domains shown)
VH: QVQLVQSGAEVKKPGSSVKVSCKASGGTFSSYAISWVRQAPGQGLEWMGNIIPNTGQTYYAQKFQGRVTITADESTSTAYMELSSLRSEDTAVYYCARAAYHPLVFDNWGQGTLVTVSS
VL: QSVLTQPPSASGTPGQRVTISCSGSSSNIGNHYVNWYQQLPGTAPKLLIYRNNHRPSGVPDRFSGSKSGTSASLAISGLQSEDEADYYCQSWDYSGFSTVFGGGTKLTVLG
B6: MOR9464_N30H (antibody, human IgG1, lambda, L234A L235A, V domains shown)
VH: EVQLVQSGAEVKKPGSSVKVSCKASGGTFHSYAISWVRQAPGQGLEWMGNIIPMTGQTYYAQKFQGRVTITADESTSTAYMELSSLRSEDTAVYYCARAAYHPLVFDNWGQGTLVTVSS
VL: DIVLTQPPSVSGAPGQRVTISCSGSSSNIGNHYVNWYQQLPGTAPKLLIYRNNHRPSGVPDRFSGSKSGTSASLAITGLQSEDEADYYCQSWDYSGFSTVFGGGTKLTVLG
B7: MOR9464_N30E (antibody, human IgG1, lambda, L234A L235A, V domains shown)
VH: EVQLVQSGAEVKKPGSSVKVSCKASGGTFESYAISWVRQAPGQGLEWMGNIIPMTGQTYYAQKFQGRVTITADESTSTAYMELSSLRSEDTAVYYCARAAYHPLVFDNWGQGTLVTVSS
VL: DIVLTQPPSVSGAPGQRVTISCSGSSSNIGNHYVNWYQQLPGTAPKLLIYRNNHRPSGVPDRFSGSKSGTSASLAITGLQSEDEADYYCQSWDYSGFSTVFGGGTKLTVLG
B8: MOR9464_N30Q (antibody, human IgG1, lambda, L234A L235A, V domains shown)
VH: EVQLVQSGAEVKKPGSSVKVSCKASGGTFQSYAISWVRQAPGQGLEWMGNIIPMTGQTYYAQKFQGRVTITADESTSTAYMELSSLRSEDTAVYYCARAAYHPLVFDNWGQGTLVTVSS
VL: DIVLTQPPSVSGAPGQRVTISCSGSSSNIGNHYVNWYQQLPGTAPKLLIYRNNHRPSGVPDRFSGSKSGTSASLAITGLQSEDEADYYCQSWDYSGFSTVFGGGTKLTVLG
B9: MOR9464_N30T (antibody, human IgG1, lambda, L234A L235A, V domains shown)
VH: EVQLVQSGAEVKKPGSSVKVSCKASGGTFTSYAISWVRQAPGQGLEWMGNIIPMTGQTYYAQKFQGRVTITADESTSTAYMELSSLRSEDTAVYYCARAAYHPLVFDNWGQGTLVTVSS
VL: DIVLTQPPSVSGAPGQRVTISCSGSSSNIGNHYVNWYQQLPGTAPKLLIYRNNHRPSGVPDRFSGSKSGTSASLAITGLQSEDEADYYCQSWDYSGFSTVFGGGTKLTVLG
B10: MOR10222 (antibody, human IgG1, lambda, L234A L235A, V domains shown)
VH: EVQLVQSGAEVKKPGSSVKVSCKASGGTFNSYAISWVRQAPGQGLEWMGNIIPMTGQTYYAQKFQGRVTITADESTSTAYMELSSLRSEDTAVYYCARAAYHPLVFDNWGQGTLVTVSS
VL: QSVLTQPPSASGTPGQRVTISCSGSSSNIGNHYVNWYQQLPGTAPKLLIYRNNHRPSGVPDRFSGSKSGTSASLAISGLQSEDEADYYCQSWDYSGFSTVFGGGTKLTVLG
B11: MOR10222_E1Q_N30S_M54Y (antibody, human IgG1, lambda, L234A L235A, V domains shown)
VH: QVQLVQSGAEVKKPGSSVKVSCKASGGTFSSYAISWVRQAPGQGLEWMGNIIPYTGQTYYAQKFQGRVTITADESTSTAYMELSSLRSEDTAVYYCARAAYHPLVFDNWGQGTLVTVSS
VL: QSVLTQPPSASGTPGQRVTISCSGSSSNIGNHYVNWYQQLPGTAPKLLIYRNNHRPSGVPDRFSGSKSGTSASLAISGLQSEDEADYYCQSWDYSGFSTVFGGGTKLTVLG
B12: MOR10222_E1Q_N30S (antibody, human IgG1, lambda, L234A L235A, V domains shown)
VH: QVQLVQSGAEVKKPGSSVKVSCKASGGTFSSYAISWVRQAPGQGLEWMGNIIPMTGQTYYAQKFQGRVTITADESTSTAYMELSSLRSEDTAVYYCARAAYHPLVFDNWGQGTLVTVSS
VL: QSVLTQPPSASGTPGQRVTISCSGSSSNIGNHYVNWYQQLPGTAPKLLIYRNNHRPSGVPDRFSGSKSGTSASLAISGLQSEDEADYYCQSWDYSGFSTVFGGGTKLTVLG

Assays:
Assay in all cases: cell-based or functional assay
[1] = molecular target: T1, Recombinant cynomolgus IL-18
Recombinant human IL-18 [2] = molecular target: T2, Recombinant human IL-18
Native human IL-18 [3] = molecular target: T3, Native human IL-18
Recombinant human IL-18 [4] = molecular target: T2, Recombinant human IL-18; remark: listed apart in the source
Native human IL-18 [5] = molecular target: T3, Native human IL-18; remark: listed apart in the source
Recombinant human IL-18 [6] = molecular target: T2, Recombinant human IL-18; remark: listed apart in the source
Native human IL-18 [7] = molecular target: T3, Native human IL-18; remark: listed apart in the source

Binder	IC50, inhibition of IFN-γ release, KG-1 cells, Cyno IL-18 [1] [nM]	IC50, inhibition of IFN-γ release, KG-1 cells, Hu IL-18 (1 nM) (Recombinant human IL-18 [2]) [nM]	IC50, inhibition of IFN-γ release, PBMC, Hu IL-18 (recombinant) (Recombinant human IL-18 [2]) [nM]	IC50, inhibition of IFN-γ release, PBMC, Native IL-18 (LPS/IL-12) (Native human IL-18 [3]) [nM]	IC50, inhibition of IFN-γ release, human whole blood, recombinant human IL-18 (7 nM) (Recombinant human IL-18 [4]) [nM]	IC50, inhibition of IFN-γ release, human whole blood, LPS/IL-12 (native IL-18) (Native human IL-18 [5]) [nM]	IC50, inhibition of IFN-γ release, KG-1 cells, Cyno IL-18 (0.2 nM) [1] [nM]	IC50, inhibition of IFN-γ release, KG-1 cells, Hu IL-18 (0.5 nM) (Recombinant human IL-18 [2]) [nM]	IC50, inhibition of IFN-γ release, KG-1 cells, Hu IL-18 (1 nM) (Recombinant human IL-18 [6]) [nM]	IC50, inhibition of IFN-γ release, PBMC, Native IL-18 (LPS/IL-12) (Native human IL-18 [7]) [nM]
B1	0.4	0.3	1	0.17	5.7	12.1	–	–	–	–
B2	–	–	–	0.5	6.6	21.5	2.9	0.11	–	–
B3	–	–	–	0.5	3.5	8.3	2.8	0.12	–	–
B4	9.8	0.8	1.9	0.3	5.6	16.7	–	–	–	–
B5	–	–	–	–	46.5	16.1	–	–	5.2	0.03
B6	–	–	–	–	11.9	23	–	–	0.23	0.1
B7	–	–	–	–	12.9	19.2	–	–	0.49	0.13
B8	–	–	–	–	8.1	13.4	–	–	0.22	0.07
B9	–	–	–	–	12.5	20.8	–	–	0.31	0.19
B10	6.6	0.7	2.3	0.22	4.7	21.6	–	–	–	–
B11	–	–	–	–	34.3	18.8	–	–	4.8	0.09
B12	–	–	–	–	58.4	16.9	–	–	3.3	0.05
